The target of test [1] is V5-tagged Tctex-1 (V5-Tctex-1 fusion protein), expressed from pcDNA3.2/V5/GW/D-TOPO (human) (UniProt P63172). The experiment in a line: cell-based or functional assay.
Test [2] addresses endogenous Tctex-1 protein of PC3 human prostate cancer cells (human) (UniProt P63172). The experiment in a line: cell-based or functional assay.

endogenous Tctex-1 protein of PC3 human prostate cancer cells (human), sequence (P63172 whole entry): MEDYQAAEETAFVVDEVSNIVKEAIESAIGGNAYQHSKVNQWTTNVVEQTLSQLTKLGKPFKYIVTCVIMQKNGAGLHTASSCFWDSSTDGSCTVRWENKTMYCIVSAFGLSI
V5-tagged Tctex-1 (V5-Tctex-1 fusion protein), expressed from pcDNA3.2/V5/GW/D-TOPO (human), sequence (P63172 whole entry, the tested form may be a part): as the sequence (P63172 whole entry) above

On to “REIC/Dkk-3 protein overexpressed from adenovirus REIC/Dkk-3 (Ad-REIC) in PC3 cells (from UniProt Q9UBP4 22-350)”, for which the apoptosis incidence (Hoechst 33342) in PC3 cells treated with Ad-REIC, group treated with the Tctex-1 expression plasmid in test [1] was 75%. Besides, in test [2], the apoptosis incidence (Hoechst 33342) in PC3 cells treated with Ad-REIC, group treated with shRNA-Tctex-1 is 15% and the apoptosis incidence (Hoechst 33342) in PC3 cells treated with Ad-REIC, group treated with the GFP plasmid is 30%.

The values above are taken from patent publication US20130267025A1.
